Data set [1] has as its target T1, TtCas6B (TTHB231, Cas6) (Thermus thermophilus HB8).
T1 chain: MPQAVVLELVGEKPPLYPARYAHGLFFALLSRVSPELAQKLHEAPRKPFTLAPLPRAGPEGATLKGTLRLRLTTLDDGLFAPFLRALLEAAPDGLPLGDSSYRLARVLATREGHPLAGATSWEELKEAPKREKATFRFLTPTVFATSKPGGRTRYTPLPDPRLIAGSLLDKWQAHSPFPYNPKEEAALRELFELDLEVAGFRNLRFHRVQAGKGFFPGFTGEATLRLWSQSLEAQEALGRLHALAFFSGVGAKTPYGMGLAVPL
Description: structure; crystal structure of R3 product complex, 2:2. The settings on record: chain copies: 2 stated (dimer in solution); label: 5'-32P (EMSA); hairpin. For orientation: In EMSA bound probe runs differently from free probe, usually more slowly.

Data set [2] concerns the target T2, TtCas6A (TTHA0078, Cas6) (Thermus thermophilus HB8).
T2 chain: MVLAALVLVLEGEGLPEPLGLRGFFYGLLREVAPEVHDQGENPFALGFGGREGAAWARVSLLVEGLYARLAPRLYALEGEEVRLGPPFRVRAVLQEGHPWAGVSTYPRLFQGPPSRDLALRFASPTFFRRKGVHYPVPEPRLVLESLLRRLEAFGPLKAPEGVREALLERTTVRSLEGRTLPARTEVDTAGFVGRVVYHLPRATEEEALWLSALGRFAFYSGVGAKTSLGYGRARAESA
Description: structure; crystal structure of substrate mimic complex, 2:1 in crystal. The settings on record: chain copies: 2 stated (dimer in solution); hairpin. An excerpt:
(§1) To determine how TtCas6A and TtCas6B bind and cleave their RNA substrates, we solved crystal structures of these proteins both alone and in complexes with their cognate RNAs (FIG. 23A, FIG. 30). For TtCas6A, we obtained a structure of the enzyme bound to a substrate mimic based on the R1 repeat sequence, consisting of the R1 stem-loop flanked by two additional nucleotides on either end of the stem. Cleavage of the substrate mimic RNA was prevented by introducing a 2′-deoxyribonucleotide at the G28 position, thereby removing the 2′-hydroxyl nucleophile required for the cleavage reaction. In addition to the substrate mimic complex, a crystal structure of a complex of TtCas6A and a cleaved RNA product was obtained when full-length R1 repeat was bound to wild-type TtCas6A and allowed to undergo cleavage during subsequent complex purification and crystallization. Finally, we determined the crystal structure of the TtCas6A H37A mutant, lacking a critical active site residue, in the absence of bound RNA. For TtCas6B, we determined crystal structures of the wild-type enzyme alone and in complex with a product of the R3 repeat cleavage reaction.

The target of data set [3] is T2, TtCas6A (TTHA0078, Cas6). Kind of data set: EMSA; deletion of nt 1-8 had little effect on affinity. The settings on record: chain copies: 2 stated (dimer in solution); hairpin.
Data set [4] has as its target T2, TtCas6A (TTHA0078, Cas6). Description: structure; crystal structure of cleaved R1 product complex, 2:1 in crystal. Particulars: chain copies: 2 stated (dimer in solution); label: 5'-32P (EMSA); hairpin.
Description: as §1

For data set [5], the target named is T2, TtCas6A (TTHA0078, Cas6). Kind of data set: EMSA; Kd in FIG. 25D only. Particulars: chain copies: 2 stated (dimer in solution); hairpin.
Data set [6] deals with T2, TtCas6A (TTHA0078, Cas6). Kind of data set: 5' truncation series, FIG. 5. Particulars: chain copies: 2 stated (dimer in solution); hairpin.
The target in data set [7] is T3, TtCas6B H42A (Thermus thermophilus HB8, H42A).
T3 chain: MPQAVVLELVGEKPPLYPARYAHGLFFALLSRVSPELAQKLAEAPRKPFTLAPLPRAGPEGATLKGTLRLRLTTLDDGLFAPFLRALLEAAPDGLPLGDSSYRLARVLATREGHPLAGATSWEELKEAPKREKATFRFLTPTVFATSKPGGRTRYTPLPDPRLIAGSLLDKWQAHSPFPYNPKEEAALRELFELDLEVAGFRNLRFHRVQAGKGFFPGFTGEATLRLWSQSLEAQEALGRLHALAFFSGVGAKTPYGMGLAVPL
Kind of data set: cleavage_in_vitro; repeat R1. The settings on record: chain copies: 2 inferred; hairpin. An excerpt:
FIG. 22 illustrates that TtCas6A and TtCas6B both cleave repeats R1 and R3 and retain their cleaved products. (A) Sequences and predicted secondary structures of T. thermophilus CRISPR repeats. Sites of cleavage are indicated with blue arrows. TtCas6e (TTHB192) cleaves repeat R2, while TtCas6A (TTHA0078) and TtCas6B (TTHB231) both cleave repeats R1 and R3. (B) Cleavage product binding affinities of TtCas6A and TtCas6B enzymes. Maltose binding protein (MBP)-fused TtCas6A or TtCas6B were bound to in 5′-radiolabelled, vitro transcribed R1 and R3 RNAs. Bound and unbound fractions were resolved by electrophoresis on a native polyacrylamide gel and visualized by phosphorimaging. The data for these and all subsequent binding assays were fit with standard binding isotherms (solid line). […] RNA cleavage was monitored using denaturing polyacrylamide gel electrophoresis. […]
(§2) To shed light on the catalytic mechanism of TtCas6A and TtCas6B, we performed cleavage assays using wild type proteins as well as active site mutants TtCas6A H37A and TtCas6B H42A using repeat R1 as a substrate (FIG. 2C). The first order rate constant determined under single-turnover conditions for wild type TtCas6A (3.2 min⁻¹) and TtCas6B (3.7 min⁻¹) are in good agreement with first order rate constants previously determined for PaCas6f and TtCas6e. […]

The target of data set [8] is T4, TtCas6A H37A (Thermus thermophilus HB8, H37A).
T4 chain: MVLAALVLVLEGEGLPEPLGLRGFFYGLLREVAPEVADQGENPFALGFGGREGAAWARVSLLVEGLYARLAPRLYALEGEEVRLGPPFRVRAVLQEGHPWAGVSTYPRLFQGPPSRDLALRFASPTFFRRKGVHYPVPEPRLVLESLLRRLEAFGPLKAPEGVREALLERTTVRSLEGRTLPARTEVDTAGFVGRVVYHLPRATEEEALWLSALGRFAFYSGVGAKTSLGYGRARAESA
Description: cleavage_in_vitro; almost inactive; rate enhanced about 360-fold with 500 mM imidazole. Particulars: chain copies: 2 inferred; hairpin.
Description: Sites of cleavage are indicated with blue arrows. TtCas6e (TTHB192) cleaves repeat R2, while TtCas6A (TTHA0078) and TtCas6B (TTHB231) both cleave repeats R1 and R3. (B) Cleavage product binding affinities of TtCas6A and TtCas6B enzymes. Maltose binding protein (MBP)-fused TtCas6A or TtCas6B were bound to in 5′-radiolabelled, vitro transcribed R1 and R3 RNAs. Bound and unbound fractions were resolved by electrophoresis on a native polyacrylamide gel and visualized by phosphorimaging. The data for these and all subsequent binding assays were fit with standard binding isotherms (solid line). Error bars on each data point denote standard error of the mean (SEM) from three independent experiments. (C) Experiments to confirm single turnover. RNA cleavage assays were carried out at indicated protein:RNA ratios. RNA cleavage was monitored using denaturing polyacrylamide gel electrophoresis. […]
as §2

For GUUGCAAACCUCGUUAGCCUCGUAGAGGAUUGAAAC (ssRNA) [R3 repeat RNA (Tt_R2 in Example 1)], in data set [1], the binding result is listed as “binds”. Consider AGCCCCGUAAGGGGAU (ssRNA, 2'-deoxy at G28) [R1 substrate mimic (nt 15-30, 2'-deoxy G28)], for which the binding result in data set [2] is reported as “binds”. As to GGAUUGAGCCCCGUAAGGGGAU (ssRNA) [R1 deletion of nt 1-8], the binding result in data set [3] is listed as “binds”. In the case of GUUGCAAGGGAUUGAGCCCCGUAAGGGGAUUGCGAC (ssRNA) [R1 repeat RNA (Tt_R1)], the binding result in data set [4] is recorded as “binds”. For the molecule GAGCCCCGUAAGGGGAU (ssRNA) [R1 deletion of nt 1-13], in data set [5], the “fold increase in Kd relative to full R1” value was ~900 fold higher Kd than full R1. Consider AGGGAUUGAGCCCCGUAAGGGGA (ssRNA) [R1 nt 7-29], for which the binding signal in data set [6] is 2.3 fold stronger than nt 8-29. GUUGCAAGGGAUUGAGCCCCGUAAGGGGAU (ssRNA) [R1 nt 1-30]: the activity in data set [7] is roughly 300 fold cleavage defect; in data set [8] it was roughly 17000 fold cleavage defect.
